In patent US20170166877A1:

Legend:
Experiment in all cases: cell-based or functional assay
[1] = target: FKBP12v36-ΔCaspase-9 encoded by the retroviral vectors pSFG-iC9.T2A-ΔCD19 (pBP0220) and its FRBL derivatives pBP0755, pBP0756, pBP0757 (human)
[2] = target: Four tandem FRBL domains encoded by pBP0725 (pSH1-FRBl.FRBl′.LS.FRBl″.FRBl′″)
[3] = target: FKBP.FRB.ΔC9 encoded by pBP1311 (pSFG.FKBP.FRB.ΔC9.T2A-ΔCD19)
[4] = target: FRB.FKBP.ΔC9 encoded by pBP1310 (pSFG.FRB.FKBP.ΔC9.T2A-ΔCD19)
[5] = target: Four tandem FKBP12 (Fpk) domains encoded by pBP0722 (pSH1-Fpk-Fpk′.LS.Fpk″.Fpk′″.LS.HA) (Homo sapiens (Human)) (UniProt P62942)
[6] = target: First generation CD19-CAR fused to two tandem FRBl domains, co-expressed with inducible Caspase-9
[7] = target: First generation Her2-CAR fused to two tandem FRBl domains
[8] = target: MyD88-CD40 fused to wild-type FKBP12 and FRBL, encoded by pBP1440
[9] = target: Non-myristoylated inducible MyD88/CD40 with two FKBP12v36 domains, encoded by pBP0606 (pSFG-k-ΔMyr.iMC.2A-ΔCD19) (human)
Non-myristoylated inducible MyD88/CD40 with two FKBP12v36 domains, encoded by pBP0606 (pSFG-k-ΔMyr.iMC.2A-ΔCD19) (human), sequence (chain, as listed by the source mutant limits assumed): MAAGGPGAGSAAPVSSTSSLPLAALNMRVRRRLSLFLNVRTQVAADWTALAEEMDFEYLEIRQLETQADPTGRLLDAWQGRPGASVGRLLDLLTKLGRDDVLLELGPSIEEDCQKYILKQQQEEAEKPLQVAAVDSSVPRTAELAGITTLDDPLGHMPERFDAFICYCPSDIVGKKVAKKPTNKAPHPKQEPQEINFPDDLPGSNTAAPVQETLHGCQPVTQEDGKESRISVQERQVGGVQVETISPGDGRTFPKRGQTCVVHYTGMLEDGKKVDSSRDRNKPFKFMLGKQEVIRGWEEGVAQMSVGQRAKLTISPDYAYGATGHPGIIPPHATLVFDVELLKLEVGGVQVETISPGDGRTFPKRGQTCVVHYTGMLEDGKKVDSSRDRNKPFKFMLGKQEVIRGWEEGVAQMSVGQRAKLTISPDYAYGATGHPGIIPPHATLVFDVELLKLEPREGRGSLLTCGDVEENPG

Four tandem FRBL domains encoded by pBP0725 (pSH1-FRBl.FRBl′.LS.FRBl″.FRBl′″), sequence (chain, as listed by the source limits assumed): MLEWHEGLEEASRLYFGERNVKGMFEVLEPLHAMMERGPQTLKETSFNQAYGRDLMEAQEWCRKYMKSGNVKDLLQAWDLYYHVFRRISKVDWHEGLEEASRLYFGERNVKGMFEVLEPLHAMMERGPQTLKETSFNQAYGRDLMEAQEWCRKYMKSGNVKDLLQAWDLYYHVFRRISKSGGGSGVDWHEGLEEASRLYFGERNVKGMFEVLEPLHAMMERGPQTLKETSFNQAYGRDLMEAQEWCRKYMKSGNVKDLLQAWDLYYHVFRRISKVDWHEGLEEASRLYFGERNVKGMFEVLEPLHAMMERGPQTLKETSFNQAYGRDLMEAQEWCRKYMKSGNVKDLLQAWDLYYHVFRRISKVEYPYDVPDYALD
FKBP.FRB.ΔC9 encoded by pBP1311 (pSFG.FKBP.FRB.ΔC9.T2A-ΔCD19), sequence (chain): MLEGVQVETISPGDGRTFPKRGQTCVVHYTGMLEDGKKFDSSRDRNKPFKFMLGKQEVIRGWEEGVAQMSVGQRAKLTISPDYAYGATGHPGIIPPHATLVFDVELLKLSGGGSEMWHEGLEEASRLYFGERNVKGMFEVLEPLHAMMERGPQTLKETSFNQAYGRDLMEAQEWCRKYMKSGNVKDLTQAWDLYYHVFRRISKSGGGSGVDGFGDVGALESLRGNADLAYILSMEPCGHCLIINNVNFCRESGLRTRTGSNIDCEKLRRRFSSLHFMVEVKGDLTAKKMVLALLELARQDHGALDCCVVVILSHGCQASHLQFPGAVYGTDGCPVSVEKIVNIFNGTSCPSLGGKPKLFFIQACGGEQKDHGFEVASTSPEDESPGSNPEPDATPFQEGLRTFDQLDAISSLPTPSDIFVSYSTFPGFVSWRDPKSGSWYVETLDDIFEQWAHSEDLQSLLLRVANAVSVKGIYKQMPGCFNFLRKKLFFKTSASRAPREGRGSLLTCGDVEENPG
Two FRBL domains fused to ΔCaspase-9, encoded by pBP0668 (pSFG-FRBlx2.Caspase9.2A-Q.8stm.CD3zeta), sequence (chain): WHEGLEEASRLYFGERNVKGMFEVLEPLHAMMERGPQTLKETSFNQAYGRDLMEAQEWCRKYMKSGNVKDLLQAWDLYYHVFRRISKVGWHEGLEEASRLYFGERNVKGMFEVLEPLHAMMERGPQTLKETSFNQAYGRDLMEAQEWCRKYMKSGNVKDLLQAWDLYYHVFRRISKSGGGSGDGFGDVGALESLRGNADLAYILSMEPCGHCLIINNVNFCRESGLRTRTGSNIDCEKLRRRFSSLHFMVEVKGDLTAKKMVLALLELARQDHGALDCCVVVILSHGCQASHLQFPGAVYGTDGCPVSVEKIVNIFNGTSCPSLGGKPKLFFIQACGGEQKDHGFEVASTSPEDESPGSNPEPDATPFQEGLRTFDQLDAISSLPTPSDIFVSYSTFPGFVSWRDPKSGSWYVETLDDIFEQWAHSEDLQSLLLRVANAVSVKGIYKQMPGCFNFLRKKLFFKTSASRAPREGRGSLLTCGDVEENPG
FRB.FKBP.ΔC9 encoded by pBP1310 (pSFG.FRB.FKBP.ΔC9.T2A-ΔCD19), sequence (chain): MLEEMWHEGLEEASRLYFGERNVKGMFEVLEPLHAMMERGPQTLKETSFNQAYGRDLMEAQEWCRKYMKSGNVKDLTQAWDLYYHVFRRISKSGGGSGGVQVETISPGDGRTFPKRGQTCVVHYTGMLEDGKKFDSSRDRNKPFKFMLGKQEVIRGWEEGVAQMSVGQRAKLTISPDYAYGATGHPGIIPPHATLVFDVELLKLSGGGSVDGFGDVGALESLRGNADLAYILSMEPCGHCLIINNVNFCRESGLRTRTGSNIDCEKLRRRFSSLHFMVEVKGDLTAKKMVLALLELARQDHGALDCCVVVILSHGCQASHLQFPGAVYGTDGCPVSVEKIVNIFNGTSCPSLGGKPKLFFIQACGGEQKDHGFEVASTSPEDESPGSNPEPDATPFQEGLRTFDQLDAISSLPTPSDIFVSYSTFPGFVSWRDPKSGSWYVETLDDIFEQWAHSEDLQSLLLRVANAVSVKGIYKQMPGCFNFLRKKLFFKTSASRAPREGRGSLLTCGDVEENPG
MyD88-CD40 fused to wild-type FKBP12 and FRBL, encoded by pBP1440, sequence (chain): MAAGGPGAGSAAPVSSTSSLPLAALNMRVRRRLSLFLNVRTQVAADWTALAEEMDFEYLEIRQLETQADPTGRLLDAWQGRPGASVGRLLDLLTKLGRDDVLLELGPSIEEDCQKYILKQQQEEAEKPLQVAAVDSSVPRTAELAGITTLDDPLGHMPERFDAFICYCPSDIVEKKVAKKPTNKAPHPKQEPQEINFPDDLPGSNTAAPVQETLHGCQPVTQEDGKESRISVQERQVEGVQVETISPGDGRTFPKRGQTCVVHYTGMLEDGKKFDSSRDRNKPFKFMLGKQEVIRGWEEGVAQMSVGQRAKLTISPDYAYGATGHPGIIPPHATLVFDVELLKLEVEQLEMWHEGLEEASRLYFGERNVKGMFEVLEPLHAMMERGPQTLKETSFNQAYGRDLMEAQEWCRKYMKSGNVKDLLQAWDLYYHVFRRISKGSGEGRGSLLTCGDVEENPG

FKBP12v36-ΔCaspase-9 encoded by the retroviral vectors pSFG-iC9.T2A-ΔCD19 (pBP0220) and its FRBL derivatives pBP0755, pBP0756, pBP0757
rapamycin concentration without effect in the SRα-SEAP assay, transfected 293 cells [1]: > 1000 nM

FKBP12v36-ΔCaspase-9 fusion encoded by pBP0044 (pSH1-iCaspase9wt)
IC50 of rapamycin or C7-isopropoxy-rapamycin for loss of constitutive SRα-SEAP reporter activity (cell death), transfected 293 cells [2]: 3 nM

FKBP.FRB.ΔC9 encoded by pBP1311 (pSFG.FKBP.FRB.ΔC9.T2A-ΔCD19)
lowest rapamycin concentration with high activity (caspase 3/7 IncuCyte assay and SRα-SEAP assay), transfected 293 cells [3]: 100 pM

FRB.FKBP.ΔC9 encoded by pBP1310 (pSFG.FRB.FKBP.ΔC9.T2A-ΔCD19)
lowest rapamycin concentration with high activity (caspase 3/7 IncuCyte assay and SRα-SEAP assay), transfected 293 cells [4]: 100 pM

FRBL-ΔCaspase-9 fusion encoded by pBP0463 (pSH1-FRBL.dCaspase9.T2A)
IC50 of rapamycin or C7-isopropoxy-rapamycin for loss of constitutive SRα-SEAP reporter activity (cell death), transfected 293 cells [5]: 3 nM

Inducible Caspase-9 (FKBP-tagged Caspase-9) as used in Example 17
decrease of constitutive SRα-SEAP activity with rapamycin, transfected 293 cells (% decrease of SEAP activity) [6]: 50 | decrease of constitutive SRα-SEAP activity with rapamycin, transfected 293 cells (% decrease of SEAP activity) [7]: 50

MyD88-CD40 fused to wild-type FKBP12 and FRBL, encoded by pBP1440
EC50 of rapamycin or isobutyloxyrapamycin in the NF-κB SeAP reporter assay, transfected 293T cells [8]: < 1 nM

Two FRBL domains fused to ΔCaspase-9, encoded by pBP0668 (pSFG-FRBlx2.Caspase9.2A-Q.8stm.CD3zeta)
rapamycin level giving elimination of CD34+CD19+ doubly transduced primary T cells (flow cytometry, 24 h) [9]: 2 nM
